In the Immune Epitope Database (IEDB):

How the values were obtained:
HLA-A*02:03 = test: IEDB peptide-MHC binding, purified MHC/competitive/radioactivity; ≥ and ≤ were set here for values at or beyond the usual limits of such assays
HLA-A*68:02 [1] = test: as above
HLA-A*02:02 = test: as above
HLA-A*02:01 [2] = test: as above
HLA-A*02:06 [3] = test: IEDB peptide-MHC binding, cellular MHC/competitive/fluorescence; ≥ and ≤ were set here for values at or beyond the usual limits of such assays
HLA-A*02:06 [4] = test: IEDB peptide-MHC binding, purified MHC/competitive/radioactivity; ≥ and ≤ were set here for values at or beyond the usual limits of such assays
HLA-A*68:02 [5] = test: IEDB peptide-MHC binding, cellular MHC/competitive/fluorescence; ≥ and ≤ were set here for values at or beyond the usual limits of such assays
HLA-A*02:01 [6] = test: as above
[7] = source organism: Vaccinia virus WR
[8] = source organism: Hepacivirus hominis
[9] = source organism: Influenza A virus

MAEFEDQLV
IC50 (HLA-A*02:03; [7]): 641 nM
IC50 (HLA-A*68:02 [1]; [7]): 674 nM
IC50 (HLA-A*02:02; [7]): 165 nM
IC50 (HLA-A*02:01 [2]; [7]): 2150 nM
IC50 (HLA-A*02:06 [3]; [7]): 5510 nM

IISTDQDTML
IC50 (HLA-A*02:03; [7]): 1810 nM
IC50 (HLA-A*02:06 [4]; [7]): 666 nM
IC50 (HLA-A*02:02; [7]): 451 nM
IC50 (HLA-A*68:02 [5]; [7]): 32400 nM
IC50 (HLA-A*02:01 [6]; [7]): 8570 nM

NIKISLNEI
IC50 (HLA-A*02:03; [7]): 31 nM
IC50 (HLA-A*02:06 [4]; [7]): 1500 nM
IC50 (HLA-A*02:02; [7]): 1670 nM
IC50 (HLA-A*68:02 [5]; [7]): 20000 nM
IC50 (HLA-A*02:01 [6]; [7]): 21000 nM

TIAVSVYGAI
IC50 (HLA-A*02:03; [7]): 582 nM
IC50 (HLA-A*68:02 [1]; [7]): 618 nM
IC50 (HLA-A*02:02; [7]): 1550 nM
IC50 (HLA-A*02:01 [2]; [7]): 2560 nM
IC50 (HLA-A*02:06 [3]; [7]): 5390 nM

FTEEQQQSFM
IC50 (HLA-A*02:03; [7]): 1750 nM
IC50 (HLA-A*02:06 [4]; [7]): 833 nM
IC50 (HLA-A*02:02; [7]): 1120 nM
IC50 (HLA-A*68:02 [5]; [7]): 8160 nM
IC50 (HLA-A*02:01 [6]; [7]): 10100 nM

NIDSIMSMM
IC50 (HLA-A*02:03; [7]): 874 nM
IC50 (HLA-A*02:06 [4]; [7]): 4720 nM
IC50 (HLA-A*02:02; [7]): 25 nM
IC50 (HLA-A*68:02 [5]; [7]): 11100 nM
IC50 (HLA-A*02:01 [6]; [7]): 5140 nM

YIEDELRRA
IC50 (HLA-A*02:03; [7]): 259 nM
IC50 (HLA-A*02:06 [4]; [7]): 1230 nM
IC50 (HLA-A*02:02; [7]): 1760 nM
IC50 (HLA-A*68:02 [5]; [7]): ≥ 70000 nM
IC50 (HLA-A*02:01 [6]; [7]): 5410 nM

KIDILQMREI
IC50 (HLA-A*02:03; [7]): 414 nM
IC50 (HLA-A*02:06 [4]; [7]): 875 nM
IC50 (HLA-A*02:02; [7]): 1280 nM
IC50 (HLA-A*68:02 [5]; [7]): ≥ 70000 nM
IC50 (HLA-A*02:01 [6]; [7]): 6510 nM

LLGLILFVL
IC50 (HLA-A*02:03; [7]): 1860 nM
IC50 (HLA-A*68:02 [1]; [7]): 906 nM
IC50 (HLA-A*02:02; [7]): 266 nM
IC50 (HLA-A*02:01 [2]; [7]): 724 nM
IC50 (HLA-A*02:06 [3]; [7]): 8130 nM

RLYDYFTRVT
IC50 (HLA-A*02:03; [7]): 551 nM
IC50 (HLA-A*02:06 [4]; [7]): 691 nM
IC50 (HLA-A*02:02; [7]): 2450 nM
IC50 (HLA-A*68:02 [5]; [7]): 7340 nM
IC50 (HLA-A*02:01 [6]; [7]): 6110 nM

VLIVMLLFA
IC50 (HLA-A*02:03; [8]): 435 nM
IC50 (HLA-A*68:02 [1]; [8]): 4550 nM
IC50 (HLA-A*02:02; [8]): 1620 nM
IC50 (HLA-A*02:01 [2]; [8]): 2360 nM
IC50 (HLA-A*02:06 [3]; [8]): 8420 nM

LLNETAKVI
IC50 (HLA-A*02:03; [7]): 71 nM
IC50 (HLA-A*68:02 [1]; [7]): 881 nM
IC50 (HLA-A*02:02; [7]): 319 nM
IC50 (HLA-A*02:01 [2]; [7]): 406 nM
IC50 (HLA-A*02:06 [3]; [7]): 15400 nM

VIPDELIDVL
IC50 (HLA-A*02:03; [7]): 4590 nM
IC50 (HLA-A*02:06 [4]; [7]): 298 nM
IC50 (HLA-A*02:02; [7]): 2490 nM
IC50 (HLA-A*68:02 [5]; [7]): 9260 nM
IC50 (HLA-A*02:01 [6]; [7]): 33000 nM

LQWDDNIPEL
IC50 (HLA-A*02:03; [7]): 712 nM
IC50 (HLA-A*02:06 [4]; [7]): 34 nM
IC50 (HLA-A*02:02; [7]): 180 nM
IC50 (HLA-A*68:02 [5]; [7]): 42700 nM
IC50 (HLA-A*02:01 [6]; [7]): 9520 nM

KVTVPTNDHI
IC50 (HLA-A*02:03; [7]): 1240 nM
IC50 (HLA-A*02:06 [4]; [7]): 3600 nM
IC50 (HLA-A*02:02; [7]): 4720 nM
IC50 (HLA-A*68:02 [5]; [7]): 6590 nM
IC50 (HLA-A*02:01 [6]; [7]): 13200 nM

GLILFVLAL
IC50 (HLA-A*02:03; [7]): 452 nM
IC50 (HLA-A*68:02 [1]; [7]): 4340 nM
IC50 (HLA-A*02:02; [7]): 129 nM
IC50 (HLA-A*02:01 [2]; [7]): 175 nM
IC50 (HLA-A*02:06 [3]; [7]): 7810 nM

GTKGKLYIA
IC50 (HLA-A*02:03; [7]): 56 nM
IC50 (HLA-A*02:06 [4]; [7]): 2530 nM
IC50 (HLA-A*02:02; [7]): 1720 nM
IC50 (HLA-A*68:02 [5]; [7]): ≥ 70000 nM
IC50 (HLA-A*02:01 [6]; [7]): 23300 nM

CLINDPWVL
IC50 (HLA-A*02:03; [9]): 255 nM
IC50 (HLA-A*68:02 [1]; [9]): 4550 nM
IC50 (HLA-A*02:02; [9]): 310 nM
IC50 (HLA-A*02:01 [2]; [9]): 127 nM
IC50 (HLA-A*02:06 [3]; [9]): 6160 nM

ELSRLRYNL
IC50 (HLA-A*02:03; [7]): 254 nM
IC50 (HLA-A*68:02 [1]; [7]): 1 nM
IC50 (HLA-A*02:02; [7]): 0.93 nM
IC50 (HLA-A*02:01 [2]; [7]): 726 nM
IC50 (HLA-A*02:06 [3]; [7]): 18600 nM

GINNVQSLI
IC50 (HLA-A*02:03; [7]): 378 nM
IC50 (HLA-A*02:06 [4]; [7]): 1720 nM
IC50 (HLA-A*02:02; [7]): 474 nM
IC50 (HLA-A*68:02 [5]; [7]): 30800 nM
IC50 (HLA-A*02:01 [6]; [7]): 11700 nM

LIAGIILLI
IC50 (HLA-A*02:03; [7]): 39 nM
IC50 (HLA-A*68:02 [1]; [7]): 20 nM
IC50 (HLA-A*02:02; [7]): 0.17 nM
IC50 (HLA-A*02:01 [2]; [7]): 109 nM
IC50 (HLA-A*02:06 [3]; [7]): 8220 nM

QLVWMACHSAA
IC50 (HLA-A*02:06 [3]; [9]): ≥ 70000 nM
IC50 (HLA-A*02:01 [6]; [9]): 11400 nM

RVLYDEFVT
IC50 (HLA-A*02:03; [7]): 1410 nM
IC50 (HLA-A*02:06 [4]; [7]): 1720 nM
IC50 (HLA-A*02:02; [7]): 2170 nM
IC50 (HLA-A*68:02 [5]; [7]): 28000 nM
IC50 (HLA-A*02:01 [6]; [7]): 13500 nM

DQDTMLFASA
IC50 (HLA-A*02:03; [7]): 663 nM
IC50 (HLA-A*02:06 [4]; [7]): 1720 nM
IC50 (HLA-A*02:02; [7]): 891 nM
IC50 (HLA-A*68:02 [5]; [7]): 5660 nM
IC50 (HLA-A*02:01 [6]; [7]): 7380 nM

QLYTISSESL
IC50 (HLA-A*02:03; [7]): 245 nM
IC50 (HLA-A*02:06 [4]; [7]): 4740 nM
IC50 (HLA-A*02:02; [7]): 72 nM
IC50 (HLA-A*68:02 [5]; [7]): 6880 nM
IC50 (HLA-A*02:01 [6]; [7]): 5290 nM

QLVFNSISA
IC50 (HLA-A*02:03; [7]): 1560 nM
IC50 (HLA-A*02:06 [4]; [7]): 3780 nM
IC50 (HLA-A*02:02; [7]): 4800 nM
IC50 (HLA-A*68:02 [5]; [7]): 8220 nM
IC50 (HLA-A*02:01 [6]; [7]): 9420 nM

NITPDDGLGL
IC50 (HLA-A*02:03; [7]): 1290 nM
IC50 (HLA-A*02:06 [4]; [7]): 3450 nM
IC50 (HLA-A*02:02; [7]): 1910 nM
IC50 (HLA-A*68:02 [5]; [7]): 12600 nM
IC50 (HLA-A*02:01 [6]; [7]): 6530 nM

FMEEEIKAEM
IC50 (HLA-A*02:03; [7]): 3070 nM
IC50 (HLA-A*02:06 [4]; [7]): 865 nM
IC50 (HLA-A*02:02; [7]): 1030 nM
IC50 (HLA-A*02:01 [2]; [7]): 86 nM
IC50 (HLA-A*68:02 [5]; [7]): 16800 nM

FMLCLLLLS
IC50 (HLA-A*02:03; [8]): 1450 nM
IC50 (HLA-A*02:06 [4]; [8]): 2100 nM
IC50 (HLA-A*02:02; [8]): 997 nM
IC50 (HLA-A*02:01 [2]; [8]): 2730 nM
IC50 (HLA-A*68:02 [5]; [8]): ≥ 70000 nM

DMLLNVQTLI
IC50 (HLA-A*02:03; [7]): 161 nM
IC50 (HLA-A*02:06 [4]; [7]): 291 nM
IC50 (HLA-A*02:02; [7]): 42 nM
IC50 (HLA-A*02:01 [2]; [7]): 80 nM
IC50 (HLA-A*68:02 [5]; [7]): 6690 nM

MIGNYFSGVL
IC50 (HLA-A*02:03; [7]): 761 nM
IC50 (HLA-A*02:06 [4]; [7]): 1310 nM
IC50 (HLA-A*02:02; [7]): 712 nM
IC50 (HLA-A*68:02 [5]; [7]): 5620 nM
IC50 (HLA-A*02:01 [6]; [7]): 5760 nM

GIIITVGMLI
IC50 (HLA-A*02:03; [7]): 595 nM
IC50 (HLA-A*02:06 [4]; [7]): 1130 nM
IC50 (HLA-A*02:02; [7]): 3580 nM
IC50 (HLA-A*02:01 [2]; [7]): 945 nM
IC50 (HLA-A*68:02 [5]; [7]): 9200 nM

KLFPRLPGI
IC50 (HLA-A*02:03; [8]): 0.5 nM
IC50 (HLA-A*02:06 [4]; [8]): 2.2 nM
IC50 (HLA-A*02:02; [8]): 8.3 nM
IC50 (HLA-A*02:01 [2]; [8]): 1.3 nM
IC50 (HLA-A*68:02 [5]; [8]): 40200 nM

CLWWTCYMLV
IC50 (HLA-A*02:03; [8]): 891 nM
IC50 (HLA-A*02:06 [4]; [8]): 2700 nM
IC50 (HLA-A*02:02; [8]): 1870 nM
IC50 (HLA-A*02:01 [2]; [8]): 271 nM
IC50 (HLA-A*68:02 [5]; [8]): 10300 nM
